The values that follow are results of earlier work, collected in publication PMC4518449 (Journal of chromatography. B, Analytical technologies in …, 2013).

For the series the following is noted: rapidly cleared by DPP-4.

With GLP-1, the half-life in plasma entry is “less than 2 min”.
